From patent EP2966085A1 come the findings set out here.

The target in this test is CD20 (human) (UniProt P11836). In words: cell-based or functional assay.
UniProt P11836, sequence (P11836 whole entry): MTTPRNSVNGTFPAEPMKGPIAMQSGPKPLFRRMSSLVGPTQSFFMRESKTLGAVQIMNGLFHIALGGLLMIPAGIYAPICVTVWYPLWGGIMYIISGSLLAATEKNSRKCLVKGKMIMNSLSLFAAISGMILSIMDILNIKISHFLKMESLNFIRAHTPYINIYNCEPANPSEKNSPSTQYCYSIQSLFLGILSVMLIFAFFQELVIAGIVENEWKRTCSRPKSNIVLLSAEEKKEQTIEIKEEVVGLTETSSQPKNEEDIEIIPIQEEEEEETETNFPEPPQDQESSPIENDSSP
Substance “mAb1 IgG1 (equivalent to rituximab), unmodified IgG1 control (antibody)” came in with a Mean normalised apoptosis % (Ramos cells), with cross-linking mAb of 278%.
Substance mAb1 IgG1 mutant H224P (antibody) yielded a Mean normalised apoptosis % (Ramos cells), with cross-linking mAb of 322% and a Mean normalised apoptosis % (Ramos cells), without cross-linking mAb of 106%.
mAb1 IgG1 mutant G137E-G138S (antibody) returned a Mean normalised apoptosis % (Ramos cells), with cross-linking mAb of 332% and a Mean normalised apoptosis % (Ramos cells), without cross-linking mAb of 78%.
On to mAb1 IgG1 mutant C220G (antibody), for which the Mean normalised apoptosis % (Ramos cells), with cross-linking mAb is 359% and the Mean normalised apoptosis % (Ramos cells), without cross-linking mAb was 106%.
